{
  "source": "the DeepSol protein solubility set",
  "data": [
    {"test": "soluble on expression in E. coli; label from the status in PepcDB or PDB records", "values": [
      {"sequence": "MSLEAKQTKKSLPLRSEIPVEETWRLEDIFPTDEAWEQEFQEVKKMIPKLAEYQGRLGESADVLYEALQYQDEVSMRLGKLYTYAHMRYDQDTTNAFYQGLNDRATSLYSEASSAMAFIVPEILAIDEVKLRSFLEEKQELKLYEHALDEINRQRPHVLSAEEEALLAQAAEVMQSSSSTFSMLNNADLTFPTIIDENGEEVEVTHGRFIRFLESTDRRVRRDAFKAVYDTYEKYKNTFASTLAGTVKKDNFFARVRRYKSAREAALSSNNIPESVYDNLIETVHEHLPLLHRYVRLRKKVLGLDELHMYDLYTPLVQDVKMEVTYEEAKEYMLKALAPLGEEYISIVKEGLENRWVDVRENKGKRSGAYSSGAYGTHPYILLNWQDNVNNLFTLVHEFGHSVHSYYTRKTQPYPYANYSIFVAEVASTCNEALLNDYLLKTMDEEKKRLYLLNHYLEGFRGTVFRQTMFAEFEHMIHIKAQEGEALTADSLTSLYYELNKKYFGDDIVVDQEIGLEWARIPHFYYNYYVYQYATGFSAATALSKQILEEGEPAVKRYIEFLKAGSSDYPIEVLKKAGVDMTSAEPIRQACQVFAEKLEEMENLLSEGHHHHHH", "soluble on expression in E. coli": "soluble"},
      {"sequence": "MSLNYQMITTDDALASLCEAVRAFPAIALDTEFVRTRTYYPQLGLIQLFDGEHLALIDPLGITDWSPLKAILRDPSITKFLHAGSEDLEVFLNVFGELPQPLIDTQILAAFCGRPMSWGFASMVEEYSGVTLGKSESRTDWLARPLTERQCEYAAADVWYLLPITAKLMVETEASGWLPAALDECRLMQMRRQEVVAPEDAWRDITNAWQLRTRQLACLQLLADWRLRKARERDLAVNFVVREEHLWSVARYMPGSLGELDSLGLSGSEIRFHGKTLLALVEKAQTLPEDALPQPMLNLMDMPGYRKAFKAIKSLITDVSETHKISAELLASRRQINQLLNWHWKLKPQNNLPELISGWRGELMAEALHNLLQEYPQEGGSHHHHHH", "soluble on expression in E. coli": "soluble"},
      {"sequence": "GPWKGGRGRAASLLPLNRALGTTRPHKEGEVPGVDYIFITVEDFMELEKSGALLESGTYEDNYYGTPKPPAEPAPLLLNVTDQILPGATPSAEGKRKRNKSVSNMEKASIEPPEEEEEERPVVNGNGVVVTPESSEHEDKSAGASGEMPSQPYPAPVYSQPEELKEQMDDTKPTKPEDNEEPDPLPDNWEMAYTEKGEVYFIDHNTKTTSWLDPRLAKKAKPPEECKENELPYGWEKIDDPIYGTYYVDHINRRTQFENPVLEAKRKLQQHNMPHTELGTKPLQAPGFREKPLFTRDASQLKGTFLSTTLKKSNMGFGFTIIGGDEPDEFLQVKSVIPDGPAAQDGKMETGDVIVYINEVCVLGHTHADVVKLFQSVPIGQSVNLVLCRGYPLPFDPEDPANSMVPPLAIMERPPPVMVNGRHNYETYLEYISRTSQSVPDITDRPPHSLHSMPTDGQLDGTYPPPVHDDNVSMASSGATQAELMTLTIVKGAQGFGFTIADSPTGQRVKQILDIQGCPGLCEGDLIVEINQQNVQNLSHTEVVDILKDCPIGSETSLIIHRGGFFSPWKTPKPIMDRWENQGSPQTSLSAPAIPQNLPFPPALHRSSFPDSTEAFDPRKPDPYELYEKSRAIYESRRPDYKELDVHLRRMESGFGFRILGGDEPGQPILIGAVIAMGSADRDGRLHPGDELVYVDGIPVAGKTHRYVIDLMHHAARNGQVNLTVRRKVLCGGEPCPENGRSPGSVSTHHSSPRSDYATYTNSNHAAPSSNASPPEGFASHSLQTSDVVIHRKENEGFGFVIISSLNRPESGSTITVPHKIGRIIDGSPADRCAKLKVGDRILAVNGQSIINMPHADIVKLIKDAGLSVTLRIIPQEELNSPTSAPSSEKQSPMAQQSPLAQQSPLAQPSPATPNSPIAQPAPPQPLQLQGHENSYRSEVKARQDVKPDIRQPPFTDYRQPPLDYRQPPGGDYQQPPPLDYRQPPLLDYRQHSPDTRQYPLSDYRQPQDFDYFTVDMEKGAKGFGFSIRGGREYKMDLYVLRLAEDGPAIRNGRMRVGDQIIEINGESTRDMTHARAIELIKSGGRRVRLLLKRGTGQVPEYDEPAPWSSPAAAAPGLPEVGVSLDDGLAPFSPSHPAPPSDPSHQISPGPTWDIKREHDVRKPKELSACGQKKQRLGEQRERSASPQRAARPRLEEAPGGQGRPEAGRPASEARAPGLAAADAADAARAGGKEAPRAAAGSELCRREGPGAAPAFAGPGGGGSGALEAEGRAGARAGPRPGPRPPGGAPARKAAVAPGPWKVPGSDKLPSVLKPGASAASR", "soluble on expression in E. coli": "soluble"},
      {"sequence": "MVEKPDINYQNKNVLHEINICYLGIMNKSLIALGAQTARRFLSSSSKNTIGGGDANRADTGVLDGYHINPLEESDMTDRSRISMLSTEMLEAKQIGVRGLSCYGFRLLDGTFLYGPIALFPKTALSWRVPTPEDITPRSLALFAALEPKIDILVLGVGDKKNIDKVRASVAPFLREHKIGLEIMDTEDAIATFNFLNAEGRYVGAALYPPDDMVVTDKEYGRALALLKGWDTVEENPLLTGLSDTINGAEDLVKRLWSGDEKSWQSARQKVLESPSEREERMQQEMNDKEKKRIE", "soluble on expression in E. coli": "not soluble"},
      {"sequence": "MSLKRTEISSLGEFGLIRHLTDCVRLKNPGTLKGIGDDAAVISFDEGMKALVTTDMLLEGIHFDLTYTPLKHLGYKSAIVNFSDIYAMNGTPRQLTVSIGVSARFSVEDIEQIYQGILTACDAYGVDLVGGDTSASLTGLCLSLTCIGEAREEEIVYRSGAKPTDLICVSGDLGAAYMGLQLLEREKAVYQGEKDFAPDFAGHEYILERQLKPEARKDIVEELRSAGIKPTAMMDISDGLSSELLHIAHAGKVGVRIYDDKLPIDYQTAAMAEEFNMNLSTAALNGGEDYELLFTVPLTRLDDIQRIEGIHLIGHITEEADGHLLVARDGTEITLVAQGWNAAKALNGEGHHHHHH", "soluble on expression in E. coli": "soluble"},
      {"sequence": "PNEKFCFEGFLPQKKGRMTKLKSLVDEHRTMVFYESPHRLLKTLTQFAEYFGPERQVSVSREISKIHEETVRGTLSELIEHFTATDPRGEIVIVLAGIDD", "soluble on expression in E. coli": "not soluble"},
      {"sequence": "MMLVTAHDMPIFAPTCNLMTISHQPLPSHLVRKSSSLHIAASTIHVKFIVRSHVIKMIAGIFLVCECHAKGGANSITASKQSPIIADLYDMKILIVFCLSYTNLIASKVKKQ", "soluble on expression in E. coli": "soluble"},
      {"sequence": "MAASIELFEQNGFSETSIQDIVDALGVTKGTFYYYFTSKEELLMDIHLRYIERLLDEEERIISDKRRSVQEKLYDIIFMLIHNVERQGREARIFFREMKHLNEEHLQKVKEKRDLFRYRLQSLIEEGMKSGELRCDLSPSIATLTVLGAANWSYQWFRPDGELTDAEVAKQMVEILLDGMSAPSVSKAE", "soluble on expression in E. coli": "not soluble"},
      {"sequence": "MGSDKIHHHHHHMAKLDDATLAQLFTEARSHNGWNPEPLPESVLRELYALTKFGPTAANGSPARFYFVTSAEAKERLAKLSSGSNGPKIMQAPCTVIIGYDLDFPQTLPKLFPHAPGAKDWFNDPVAKEWCALRNSSLQGGYFMIGARALGLDVGPMSGFDNAAVDAEFFAGTNIKSNFIVSIGHGTDEGLFPRNPRLDFDEAAKIL", "soluble on expression in E. coli": "not soluble"},
      {"sequence": "MTAAARTPAFYLDLGVPDTVMGRFEMLSVIMILYFRRTKSSGVSGQEIAQEIVDAFFQDIDHSIRELGIGDQGVPKRMKKFAGMFYGRLESYAAALDASDCAALAAALRRNIYPQVDDEAPEMEGLAGWMMETSDALAAQSEETIATGSLTLPLPILEHHHHHH", "soluble on expression in E. coli": "not soluble"},
      {"sequence": "MHTKGPTPQQHDGSALRIGIVHARWNETIIEPLLAGTKAKLLACGVKESNIVVQSVPGSWELPIAVQRLYSASQLQTPSSGPSLSAGDLLGSSTTDLTALPTTTASSTGPFDALIAIGVLIKGETMHFEYIADSVSHGLMRVQLDTGVPVIFGVLTVLTDDQAKARAGVIEGSHNHGEDWGLAAVEMGVRRRDWAAGKTE", "soluble on expression in E. coli": "soluble"},
      {"sequence": "MAHHHHHHMSASAPRVGLLGAANIAWRAWTGVRANGMSVTRVGCRDVDRGRNFVKRVCDALKIDEAAVPAVCSYEELVSAADVDVVYIAIPVKARDHWVRECIKYKKHVVGEKPPATDAEMLRSWIEALDQQNLLYMDGTMLSHGKRVKEICAAVKQMGGPVKHIFANVTLGGDEAFLANNIRTNPELEPHGALGDLGWYCIRYALHLMDFQMPTEVTGRILKQNDKGAIISFIGDMTFEVGGEVALVSFFVSFEAAFEQTLHITTTEGMLQLDDMCLPMTSRPETVYYEVHNSSYDNVCESHNLHTEVKHTVNGDAPNSQCTELWGDVARILYADGEGDARRLKAKEESSRYWATVSWKTQAVMDKMLESALIGRNAAPTA", "soluble on expression in E. coli": "not soluble"},
      {"sequence": "DDEFLRGKRVLVVDDNFISRKVATGKLKKMGVSEVEQCDSGKEALRLVTEGLTQREEQGSVDKLPFDYIFMDCQMPEMDGYEATREIRKVEKSYGVRTPIIAVSGHDPGSEEARETIQAGMDAFLDKSLNQLANVIREIESKR", "soluble on expression in E. coli": "soluble"},
      {"sequence": "MSVLRSMDKLPDLNRATVLLVSTEDALLQQLAESMLKDDCASELRVHLANSLPLPSNVNRPRIDLIVFVINLHSKYSLQKVEEFLQHVDSSFFLGKVCFLVTGAGQESHCSVHQNTVIKLAHTYRSPLFLCDLQKVESFRAAMARRLVRILQICAGHVPGVSALNLMSLLRSPENPPSKEL", "soluble on expression in E. coli": "not soluble"},
      {"sequence": "MSLAVIKQDDLIQSVADALQFISYYHPVDFIQAMHEAYLREESPAARDSMAQILINSRMCATGHRPICQDTGIVTVFVRVGMDVRWDGATMSVDDMINEGVRRAYNLPENVLRASILADPAGARKNTKDNTPAVIHYSIVPGDKVEVDVAAKGGGSENKSKMAMLNPSDSIVDWVLKTVPTMGAGWCPPGMLGIGIGGTAEKAAVMAKEVLMDPIDIHELKARGPQNRIEELRLELFEKVNQLGIGAQGLGGLTTVLDVKIMDYPTHAASLPVCMIPNCAATRHAHFVLDGSGPAELEAPSLDAYPEIVWEAGPSARRVDLDKITPEEVQSWKPGETLLLNGKMLTGRDAAHKRMVDMLNKGETLPVDLKGRFIYYVGPVDPVGDEVVGPAGPTTATRMDKFTRQILEQTGLLGMIGKSERGPIAIEAIKDNKAVYLMAVGGAAYLVAQAIKKSKVLAFAELGMEAIYEFEVKDMPVTVAVDTNGESVHITGPAVWQKKIAESLAVEVKEGGSHHHHHH", "soluble on expression in E. coli": "soluble"},
      {"sequence": "GPGSMDSINSVTFEWVRAGPAYTLDGPHVYHSGCLGSYQPAIGGLEMPAGHGKYFYEIQTSDTRCKVGVCTEDAFLSNVNLGDVELHAAQPSSSLNSRLSEANCCLFNCLTCAVEVNGVEVRSLWRLLVPSAGARFGFLVNTDEGAVQLYVNGEYQGLIADTATGFKGKKLRPCIALDAPPTCGAGAEANKSSASVVPPRKIIASTA", "soluble on expression in E. coli": "not soluble"},
      {"sequence": "MGSDKIHHHHHHMKVAYLSSAYLAPVEYYSKLLNYDKIFIEQHDHYMKQTYRNRCTIAGPEGELALSIPIVKPEEPKCPMKDIRISDHGNWRHLHWNAIESAYNSTPFFEYYKDDFRPFYEKKYEFLTDFNEELCRLVCELIDIQPAIERTKEYKTDFAPNEIDFREAIHPKKDFHRTDPEFIPQPYYQVFEARYGFLPNLSIIDLLFNMGPESLLILQKTCADSQ", "soluble on expression in E. coli": "not soluble"},
      {"sequence": "IDQLNRNQLDLGMCYVDQVNTAYFDVIELDSTKLGVLFDERHFDFAESEVLWESLNNIPLGLLSKGMHYRHSIDLSFVSKGLVPQTVIESNSTFHLIQAVTSGLCCAIMPLNCGLEELNDTLRIIPIEEAAVHAPLGLLKRKQEPFSALTDQCFAEAKNIFNR", "soluble on expression in E. coli": "not soluble"},
      {"sequence": "MGSDKIHHHHHHDSKQSQDLIVKTAQAVSASGIKTTEFPFIAQPFRTSELSFRVGGPIDRLDVYAGNHYKQGSIIAEIDPRDFHIRKERAEAIYHQAKAEFERIEKLYEKNNVSASTYEKTKADYTTAKTAFDTASNELGDTRLTAPFDGYVGEVYIEKYQDVKPAQPVISFIDINRLKIEIYVTQNIAFASHPTDSVRIYFDAQPDKYYKAQIVEVSKGTTRNNLSYLLTAVLPNKEGKLLAGMSGKAIFDAPGTTDLTGVSIPQTALCYRPSEGEYVWVIDTNTRQVNRRTVKKGNLLPGGYVTITEGLRASETVATSGLRFLSDGMKVEISTKTNSL", "soluble on expression in E. coli": "not soluble"}
    ]}
  ]
}
